Drawing on article PMC7506613, this text covers Kd for three sequences.

pKd: −log10 of the molar value.

The target in this data set is T1, IIA2 peptide (lambda-Cro mutant, helix-turn-helix) (phage lambda (designed mutant)) (UniProt P03040).
T1 sequence: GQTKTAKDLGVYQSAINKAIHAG
As to the kind of experiment: fluorescence titration (520 nm). Conditions: fluorescein-labeled peptide; Fluorescence: 20 uM (so in the source) phosphate buffer, room temperature, 15 min; CD: 20 mM phosphate pH 7.4 (stated for peptide CD), 20 uM each; microarray: PBS ….
As a reminder, the pKd is the negative decadic logarithm of the Kd, by convention in mol/L. Sequence “GCAATGGTACGGTACTTCCGGGCTGGCCAGATCAGACCCCGGATGATCATCCTTGTGAGAACCACAAAAGTGCACGCTACTTTGCTAA [SA23 aptamer]” showed a pKd of 5.79.

“TCCGGGCTGGCCAGATCAGACCCCGGA [SA23 short2]” gave a pKd of 5.02.

TCCGGGG (double strand) [SA23 short1]: the pKd was 5.24.
